Test results taken from IntAct's records for PubMed 18772112.

B1: Catenin beta-1 (Homo sapiens), P35222 (parent)
chain: MATQADLMELDMAMEPDRKAAVSHWQQQSYLDSGIHSGATTTAPSLSGKGNPEEEDVDTSQVLYEWEQGFSQSFTQEQVADIDGQYAMTRAQRVRAAMFPETLDEGMQIPSTQFDAAHPTNVQRLAEPSQMLKHAVVNLINYQDDAELATRAIPELTKLLNDEDQVVVNKAAVMVHQLSKKEASRHAIMRSPQMVSAIVRTMQNTNDVETARCTAGTLHNLSHHREGLLAIFKSGGIPALVKMLGSPVDSVLFYAITTLHNLLLHQEGAKMAVRLAGGLQKMVALLNKTNVKFLAITTDCLQILAYGNQESKLIILASGGPQALVNIMRTYTYEKLLWTTSRVLKVLSVCSSNKPAIVEAGGMQALGLHLTDPSQRLVQNCLWTLRNLSDAATKQEGMEGLLGTLVQLLGSDDINVVTCAAGILSNLTCNNYKNKMMVCQVGGIEALVRTVLRAGDREDITEPAICALRHLTSRHQEAEMAQNAVRLHYGLPVVVKLLHPPSHWPLIKATVGLIRNLALCPANHAPLREQGAIPRLVQLLVRAHQDTQRRTSMGGTQQQFVEGVRMEEIVEGCTGALHILARDVHNRIVIRGLNTIPLFVQLLYSPIENIQRVAAGVLCELAQDKEAAEAIEAEGATAPLTELLHSRNEGVATYAAAVLFRMSEDKPQDYKKRLSVELTSSLFRTEPMAWNETADLGLDIGAQGEPLGYRQDDPSYRSFHSGGYGQDALGMDPMMEHEMGGHHPGADYPVDGLPDLGHAQDLMDGLPPGDSNQLAWFDTDL

Variants of: B1
Settings: with runx3_human RUNX3, Q13761
Sequence of runx3_human RUNX3, Q13761 (Q13761 whole entry): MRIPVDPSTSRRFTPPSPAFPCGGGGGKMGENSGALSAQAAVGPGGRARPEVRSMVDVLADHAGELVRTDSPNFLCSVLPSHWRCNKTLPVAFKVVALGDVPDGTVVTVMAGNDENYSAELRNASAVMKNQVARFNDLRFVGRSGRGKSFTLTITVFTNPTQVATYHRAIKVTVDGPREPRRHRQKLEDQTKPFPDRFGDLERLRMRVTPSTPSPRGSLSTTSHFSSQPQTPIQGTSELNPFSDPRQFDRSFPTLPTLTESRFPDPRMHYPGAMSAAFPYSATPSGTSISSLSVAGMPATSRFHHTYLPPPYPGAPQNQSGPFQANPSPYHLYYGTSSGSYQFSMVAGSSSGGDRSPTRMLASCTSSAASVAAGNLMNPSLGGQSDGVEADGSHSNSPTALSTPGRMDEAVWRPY

effect of a mutation on the interaction | Variant
increasing interaction | S33Y
